Measurements taken from publication PMC10201431, “SirA inhibits the essential DnaA:DnaD interaction to block helicase recruitment during Bacillus subtilis sporulation” (Nucleic Acids Research, 2022).
Blank lines part the entries; values can stand above or below the molecule they belong to.

Key:
[1] = biological target: DnaD^L22A, purified recombinant (B. subtilis) (UniProt P39787); assay: SEC-MALS; 20°C; 40 mM Tris-HCl pH 8, 500 mM NaCl, 1 mM EDTA, 20 mM imidazole, 2.5% glycerol; 100 μl injected
[2] = biological target: the molecule itself; assay: cross-linking; BS3, 250 nM protein, 500x molar excess BS3, 6 min at 20°C, 20 mM HEPES pH 7.2, 100 mM NaCl, 10 mM magnesium acetate; SDS-PAGE and anti-DnaD immunoblot
[3] = biological target: the molecule itself; assay: SEC-MALS; 20°C; 40 mM Tris-HCl pH 8, 500 mM NaCl, 1 mM EDTA, 20 mM imidazole, 2.5% glycerol; 100 μl injected

percent present as monomer [1]: > 50% | stoichiometry N [1]: 4
Molecule: DnaD^L22A, purified recombinant (from UniProt P39787 1-232) (natural protein)

B1: DnaD^F6A, purified recombinant (natural protein, B. subtilis, UniProt P39787 1-232, looked up)
chain: MKKQQAIDMQEQGTSTIPNLLLTHYKQLGLNETELILLLKIKMHLEKGSYFPTPNQLQEGMSISVEECTNRLRMFIQKGFLFIEECEDQNGIKFEKYSLQPLWGKLYEYIQLAQNQTQERKAEGEQKSLYTIFEEEFARPLSPLECETLAIWQDQDQHDAQLIKHALKEAVLSGKLSFRYIDRILFEWKKNGLKTVEQAKIHSQKFRRVQAKQNEPQKEYKRQVPFYNWLEQ
notes: DnaD, B. subtilis 168CA, with F6A; made from pSF17 by Quickchange; source: E. coli BL21(DE3)-pLysS, purified (HisTrap, SUMO protease digestion, reverse HisTrap)
stoichiometry N [2]: 2

B2: DnaD, wild type, purified recombinant (natural protein, B. subtilis, UniProt P39787 1-232, looked up)
chain: MKKQQFIDMQEQGTSTIPNLLLTHYKQLGLNETELILLLKIKMHLEKGSYFPTPNQLQEGMSISVEECTNRLRMFIQKGFLFIEECEDQNGIKFEKYSLQPLWGKLYEYIQLAQNQTQERKAEGEQKSLYTIFEEEFARPLSPLECETLAIWQDQDQHDAQLIKHALKEAVLSGKLSFRYIDRILFEWKKNGLKTVEQAKIHSQKFRRVQAKQNEPQKEYKRQVPFYNWLEQ
notes: DnaD, B. subtilis 168CA; dnaD amplified from genomic DNA and cloned into pSF17; The printed theoretical mass of the tetramer (110 kDa) fits the whole protein; also called Wild-type DnaD; source: E. coli BL21(DE3)-pLysS, purified (HisTrap, SUMO protease digestion, reverse HisTrap)
stoichiometry N [3]: 4

B3: DnaD^K3A, purified recombinant (natural protein, B. subtilis, UniProt P39787 1-232, looked up)
chain: MKAQQFIDMQEQGTSTIPNLLLTHYKQLGLNETELILLLKIKMHLEKGSYFPTPNQLQEGMSISVEECTNRLRMFIQKGFLFIEECEDQNGIKFEKYSLQPLWGKLYEYIQLAQNQTQERKAEGEQKSLYTIFEEEFARPLSPLECETLAIWQDQDQHDAQLIKHALKEAVLSGKLSFRYIDRILFEWKKNGLKTVEQAKIHSQKFRRVQAKQNEPQKEYKRQVPFYNWLEQ
notes: DnaD, B. subtilis 168CA, with K3A; made from pSF17 by Quickchange; source: E. coli BL21(DE3)-pLysS, purified (HisTrap, SUMO protease digestion, reverse HisTrap)
stoichiometry N [2]: 2
